Target: phage-displayed CTXD of SEQ ID NO: 24 (bacteriophage M13)
Assay: Co-bead test, phage display (FIG. 3)

B1: his-tagged MMP-2 (Co-bead test; ProSpec #ENZ-769) (enzyme)
chain: YNFFPRKPKWDKNQITYRIIGYTPDLDPETVDDAFARAFQVWSDVTPLRFSRIHDGEADIMINFGRWEHGDGYPFDGKDGLLAHAFAPGTGVGGDSHFDDDELWTLGEGQVVRVKYGNADGEYCKFPFLFNGKEYNSCTDTGRSDGFLWCSTTYNFEKDGKYGFCPHEALFTMGGNAEGQPCKFPFRFQGTSYDSCTTEGRTDGYRWCGTTEDYDRDKKYGFCPETAMSTVGGNSEGAPCVFPFTFLGNKYESCTSAGRSDGKMWCATTANYDDDRKWGFCPDQGYSLFLVAAHEFGHAMGLEHSQDPGALMAPIYTYTKNFRLSQDDIKGIQELYGASPDIDLGTGPTPTLGPVTPEICKQDIVFDGIAQIRGEIFFFKDRFIWRTVTPRDKPMGPLLVATFWPELPEKIDAVYEAPQEEKAVFFAGNEYWIYSASTLERGYPKPLTSLGLPPDVQRVDAAFNWSKNKKTYIFAGDKFWRYNEVKKKMDPGFPKLIADAWNAIPDNLDAVVDLQGGGHSYFFKGAYYLKLENQSLKSVKFGSIKSDWLGC
notes: range 110-660; also called matrix metalloproteinase 2
binding result: binds

From patent US20240115717A1 (VRG THERAPEUTICS KFT, published 2024)
